The supplement of paper PMC9112550, “Optimization of the antimicrobial peptide Bac7 by deep mutational scanning” (BMC Biology, 2022)

tested on: Escherichia coli TOP10; assay: shrunken log2 fold change of peptide-encoding DNA abundance (4.5 h post-induction vs induction); higher = less antimicrobial activity (less host growth inhibition); conditions: time post-induction: 4.5 h; library: site-saturation at positions 5, 18, 19, 20
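Note: peptides expressed intracellularly from a pBAD plasmid library in pooled LB shake-flask culture, induced with 0.3% L-arabinose, DNA abundance read by NGS, three biological replicates, DESeq2 with apeglm shrinkage.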

| Sequence | shrunken log2 fold change |
| --- | --- |
| RRIRWRPPRLPRPRPRPFTWPRP | -0.119 |
| RRIRSRPPRLPRPRPRPERNPRP | -0.098 |
| RRIRWRPPRLPRPRPRPCLWPRP | 0.0333 |
| RRIRYRPPRLPRPRPRPCTQPRP | -1.32 |
| RRIRCRPPRLPRPRPRPSSEPRP | -0.284 |
| RRIRKRPPRLPRPRPRPAFIPRP | 0.129 |
| RRIRCRPPRLPRPRPRPTRSPRP | 0.643 |
| RRIRARPPRLPRPRPRPHYRPRP | 0.0684 |
| RRIRIRPPRLPRPRPRPCINPRP | -0.355 |
| RRIRWRPPRLPRPRPRPAVFPRP | 0.354 |
| RRIRARPPRLPRPRPRPQVNPRP | -0.196 |
| RRIRTRPPRLPRPRPRPCTTPRP | -0.0816 |
| RRIRGRPPRLPRPRPRPYQAPRP | -0.119 |
| RRIRTRPPRLPRPRPRPMEKPRP | -0.00136 |
| RRIRIRPPRLPRPRPRPIHQPRP | -1.14 |
| RRIRCRPPRLPRPRPRPIVCPRP | -0.272 |
| RRIRERPPRLPRPRPRPVSAPRP | 0.148 |
| RRIRKRPPRLPRPRPRPSLWPRP | 0.187 |
| RRIRSRPPRLPRPRPRPMRNPRP | 0.628 |
| RRIRSRPPRLPRPRPRPDINPRP | -0.253 |
| RRIRWRPPRLPRPRPRPHHSPRP | -0.667 |
| RRIRLRPPRLPRPRPRPDCIPRP | 0.185 |

| Sequence | shrunken log2 fold change |
| --- | --- |
| RRIRHRPPRLPRPRPRPEPLPRP | 0.0544 |
| RRIRNRPPRLPRPRPRPQMAPRP | -0.23 |
| RRIRARPPRLPRPRPRPAWTPRP | -0.0258 |
| RRIRARPPRLPRPRPRPNYPPRP | -0.144 |
| RRIRIRPPRLPRPRPRPYDAPRP | -1.48 |
| RRIRFRPPRLPRPRPRPIGAPRP | 0.064 |
| RRIRSRPPRLPRPRPRPVVCPRP | -0.0186 |
| RRIRVRPPRLPRPRPRPREIPRP | 0.087 |
| RRIRCRPPRLPRPRPRPNFLPRP | -0.265 |
| RRIRWRPPRLPRPRPRPFYDPRP | -0.21 |
| RRIRTRPPRLPRPRPRPNDVPRP | -0.0532 |
| RRIRKRPPRLPRPRPRPGIIPRP | -0.000605 |
| RRIRKRPPRLPRPRPRPYSVPRP | -0.114 |
| RRIRIRPPRLPRPRPRPHAGPRP | -0.242 |
| RRIRDRPPRLPRPRPRPKHDPRP | -0.16 |
| RRIRKRPPRLPRPRPRPWCSPRP | -0.155 |
| RRIRCRPPRLPRPRPRPSHNPRP | -0.628 |
| RRIRMRPPRLPRPRPRPPHHPRP | 0.527 |
| RRIRDRPPRLPRPRPRPTNMPRP | -0.00949 |
| RRIRRRPPRLPRPRPRPVTVPRP | 0.124 |
| RRIRIRPPRLPRPRPRPAETPRP | -0.0338 |
| RRIRRRPPRLPRPRPRPSVQPRP | 0.184 |

| Sequence | shrunken log2 fold change |
| --- | --- |
| RRIRSRPPRLPRPRPRPVSTPRP | -0.187 |
| RRIRHRPPRLPRPRPRPHYPPRP | -0.208 |
| RRIRSRPPRLPRPRPRPKLMPRP | -0.125 |
| RRIRFRPPRLPRPRPRPYDNPRP | -0.775 |
| RRIRRRPPRLPRPRPRPVEPPRP | -0.0837 |
| RRIRVRPPRLPRPRPRPPKFPRP | 0.133 |
| RRIRYRPPRLPRPRPRPHDFPRP | -0.167 |
| RRIRIRPPRLPRPRPRPWTRPRP | -0.187 |
| RRIRIRPPRLPRPRPRPLWLPRP | -0.208 |
| RRIRFRPPRLPRPRPRPWVQPRP | -0.116 |
| RRIRTRPPRLPRPRPRPIFSPRP | -0.393 |
| RRIRHRPPRLPRPRPRPARHPRP | 0.293 |
| RRIRARPPRLPRPRPRPTGRPRP | 0.215 |
| RRIRRRPPRLPRPRPRPRAMPRP | 0.145 |
| RRIRARPPRLPRPRPRPMVIPRP | 0.0235 |
| RRIRYRPPRLPRPRPRPCFVPRP | -1.09 |
| RRIRMRPPRLPRPRPRPHSEPRP | 0.134 |
| RRIRMRPPRLPRPRPRPTLMPRP | 0.0126 |
| RRIRHRPPRLPRPRPRPEDAPRP | -0.0619 |
| RRIRHRPPRLPRPRPRPRHGPRP | -0.0477 |
| RRIRTRPPRLPRPRPRPGQRPRP | 0.118 |
| RRIRGRPPRLPRPRPRPDSVPRP | 0.704 |

| Sequence | shrunken log2 fold change |
| --- | --- |
| RRIRQRPPRLPRPRPRPSMKPRP | -0.166 |
| RRIRSRPPRLPRPRPRPVAEPRP | 1.28 |
| RRIRYRPPRLPRPRPRPEFHPRP | 0.00393 |
| RRIRCRPPRLPRPRPRPDWFPRP | -0.141 |
| RRIRMRPPRLPRPRPRPPSDPRP | 1.06 |
| RRIRHRPPRLPRPRPRPNVNPRP | -0.555 |
| RRIRRRPPRLPRPRPRPMCPPRP | -0.119 |
| RRIRCRPPRLPRPRPRPRFWPRP | 0.167 |
| RRIRGRPPRLPRPRPRPTWKPRP | 0.847 |
| RRIRDRPPRLPRPRPRPQTDPRP | -0.0328 |
| RRIRFRPPRLPRPRPRPMLAPRP | 0.0819 |
| RRIRSRPPRLPRPRPRPFTRPRP | 0.0337 |
| RRIRTRPPRLPRPRPRPVLKPRP | 0.209 |
| RRIRVRPPRLPRPRPRPLNWPRP | 1.03 |
| RRIRIRPPRLPRPRPRPDLQPRP | -0.0567 |
| RRIRGRPPRLPRPRPRPFDLPRP | -0.24 |
| RRIRDRPPRLPRPRPRPEHIPRP | -0.193 |
| RRIRYRPPRLPRPRPRPFIWPRP | -0.2 |
| RRIRKRPPRLPRPRPRPQMSPRP | -0.164 |
| RRIRYRPPRLPRPRPRPHHQPRP | -1.06 |
| RRIRLRPPRLPRPRPRPPIFPRP | -0.0913 |
| RRIRCRPPRLPRPRPRPWWDPRP | 0.00335 |

| Sequence | shrunken log2 fold change |
| --- | --- |
| RRIRQRPPRLPRPRPRPGIGPRP | -0.005 |
| RRIRPRPPRLPRPRPRPTARPRP | 0.352 |
| RRIRQRPPRLPRPRPRPAMSPRP | 0.322 |
| RRIRMRPPRLPRPRPRPPQEPRP | 0.161 |
| RRIRSRPPRLPRPRPRPCYVPRP | -0.338 |
| RRIRFRPPRLPRPRPRPVHMPRP | -0.0472 |
| RRIRPRPPRLPRPRPRPAVFPRP | 0.373 |
| RRIRARPPRLPRPRPRPDEMPRP | 0.546 |
| RRIRARPPRLPRPRPRPPCIPRP | -0.111 |
| RRIRNRPPRLPRPRPRPFRHPRP | -0.727 |
| RRIRKRPPRLPRPRPRPKIEPRP | -0.0694 |
| RRIRVRPPRLPRPRPRPVPDPRP | -0.103 |
| RRIRWRPPRLPRPRPRPTYYPRP | -0.463 |
| RRIRIRPPRLPRPRPRPAKTPRP | 0.0509 |
| RRIRIRPPRLPRPRPRPEHDPRP | -0.523 |
| RRIRYRPPRLPRPRPRPLHGPRP | -0.0615 |
| RRIRCRPPRLPRPRPRPMCFPRP | 0.00335 |
| RRIRFRPPRLPRPRPRPFTKPRP | -0.411 |
| RRIRRRPPRLPRPRPRPKANPRP | 0.264 |
| RRIRERPPRLPRPRPRPTIMPRP | -0.959 |
| RRIRERPPRLPRPRPRPIQIPRP | -0.103 |
